Test results from the domain aggregation screens of Martell et al. (2025).

Test: soluble fraction after stress (log2 fold change); higher = more stays soluble; pooled small domains, quantitative proteomics
Details: stress: 50 degC
Procedure, shortened: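 Custom libraries of small protein domains were pooled and measured in a high-throughput format, with quantitative proteomics as the read-out. Each library was stressed at 50°C. The value is the log2 fold change in the amount of each protein that stays soluble after stress, used as a measure of aggregation propensity; higher values mean more of the protein stays soluble.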

**Q.** Which “soluble fraction (log2)” value does the source give for “HMLINPLDILRNFNLSLYDDSRDSASNKEIDEIFESIKTNNSHIFSTLKAYRIPLPIASLIIKKIIKITLE” here?
**A.** -0.534

**Q.** For “HMAAQLAHVPAVTGRPLAEAQRILADNRLNAQVTQQPVAEPKLDGVVIAQKITEGTRTMRGATVPLIVGKY”, which “soluble fraction (log2)” value is on record?
**A.** 0.128

**Q.** Which “soluble fraction (log2)” value does the source give for “HMKVGEIIKAKREELKIPLVNFAKELDISQGYLSQIENGIKTNPNLDIILKIIHRLDIDLAMLL” here?
**A.** -1.32

**Q.** Which “soluble fraction (log2)” value does the source give for “HMVERLVVSPGAGVFAPNKAIANGTRISVGDVLGMVGEQEVRSLFDGVLQSFISVDGERLTAHQPVAWLRT” here?
**A.** -0.536

**Q.** With “HMKKRDANSQGTRLILFYMLQRLHTEYKLQGFVTYNQRRSFREIYDAYHALGGNGFGTAMWEEVKELDLK” as the sequence, how does the “soluble fraction (log2)” value read?
**A.** -1.43

**Q.** With “HMDLPREKRIEIGLTYIYGIGLKTSQKILAATGIDPNTRVKDLDETTVSKLREYIDHNYRVEGELRS” as the sequence, how does the “soluble fraction (log2)” value read?
**A.** -0.504

**Q.** With “HMGKINEIVANNIAILRKKNRLSLEELGKLSGVSKSMLALIEKGDGNPTLGILWKIANGLGVPFDELTRRP” as the sequence, how does the “soluble fraction (log2)” value read?
**A.** -0.0928

**Q.** Which “soluble fraction (log2)” value does the source give for “HMTVGEKIQYYRKKIGLSQEELGQKMLLSRQTISLWEMDKTLPTVDNLLRLKEIFSVSIDELLSENEPK” here?
**A.** 0.013

**Q.** Which “soluble fraction (log2)” value does the source give for “HMEAAETAVVTGTIVNIRSGPTLDFEAFAQVKQGDRLPVLDKFYNWYYVKLPSGVNGWISGQLVRIEQ” here?
**A.** -0.25

**Q.** With “HMSRYAFEGNVVRLNQKDFDSWKALFTNIDLVSELTRLDIEFTHDKPKNWFSTASAKLNYQNKNAY” as the sequence, how does the “soluble fraction (log2)” value read?
**A.** -2.27

**Q.** With “HMKRMSKKQLSAVIEKYFSSQPGVTLTLKDIFRNLHLDTHPLKMIALDILEEMSWDDVIMKVSDTSYALNT” as the sequence, how does the “soluble fraction (log2)” value read?
**A.** 0.281

**Q.** For “HMNHHEIIMKNIDTLLKEKNISISKLEKSLGISNGYISRLRNGKYNFSLDLLLKLAKKFKISIDYLLTDFD”, which “soluble fraction (log2)” value is on record?
**A.** 0.00249

**Q.** Which “soluble fraction (log2)” value does the source give for “HMIHSEDMDDHILGHKLVDQYLNKHIEFDNIKKAWNYHTVAIKKFGRYPHRNKILKRESTIEEIDFLKQP” here?
**A.** 0.149

**Q.** With “HMKPVPPLNGTSLRDLALGYAGRYATTAARLKHYLQRKLRERGWGGEDEPDLDGLVARLVELGYVNDEVF” as the sequence, how does the “soluble fraction (log2)” value read?
**A.** -0.102

**Q.** For “HMADFYEVLGVERNASSDQIKRAYRKLARELHPDVNLDPVAQNRFKEVTEAYEVLSDPNKRSNFDRG”, which “soluble fraction (log2)” value is on record?
**A.** 0.209

**Q.** For “HMSLGSNISRLRAEKHLSQGDLAEALDVSRQSVSKWETDGSVPDLDKLVKLSRIFGVTLDELVTGTP”, which “soluble fraction (log2)” value is on record?
**A.** 0.0174

**Q.** With “HMSDGDFLQKIAEEILAQFPDKVKEYQKGKKGLIGFFMGELMKRSKGKADPKVATRILEEILSEKNGSS” as the sequence, how does the “soluble fraction (log2)” value read?
**A.** 0.17

**Q.** With “HMRGAIKMAEEQMAGHKKIGSISGTAPTQGELEKKFAMAAAQMGARYYVITGLSNNNYAFGNADIY” as the sequence, how does the “soluble fraction (log2)” value read?
**A.** -0.316

**Q.** With “HMDSGFMRTTQSYTVARLAEIFRLSGEDYLAVLREYDGWYQDLTSTKDLIRKGSDVPVPEGV” as the sequence, how does the “soluble fraction (log2)” value read?
**A.** -1.61

**Q.** Which “soluble fraction (log2)” value does the source give for “HMQYTQKTMYINDSYVNLRKSASTSSDIIMVVELNTKLTVIGEDGDWYKVKTSSGNAYVLKTLLSNEKKET” here?
**A.** -0.108

**Q.** For “HMVSDISTQYQKIINEALDKQPEVKLADIVTMIKEQTSNKVQNGIVENVAKQMNGIEIIKIGQAKGVRRTT”, which “soluble fraction (log2)” value is on record?
**A.** 0.116

**Q.** Which “soluble fraction (log2)” value does the source give for “HMREVTVGSAVRLKKGAKTYSGGSLASFVYERNHQVTQLSGDRAVISFKGTVVAAVHKDDLIL” here?
**A.** -0.916

**Q.** Which “soluble fraction (log2)” value does the source give for “HMEPKIKQIVPNVVNYPVEDAKNVLVNSGLIVQIRGQGNIVYDQVPKGGAEVTRGTTVILDLNPPPGA” here?
**A.** 0.42

**Q.** For “HMSSVRDNGDLELVPGDRIRHDDYGEGRVTAVTGVGSKRIAHAVFDSVGERKLLIKLSPIEKI”, which “soluble fraction (log2)” value is on record?
**A.** -0.0293

**Q.** Which “soluble fraction (log2)” value does the source give for “HMREKLKEYVHLLFAGTVGKEDMEQEILQNTLDRFDDWVARGFSEEDAYRKAVSGIGDIDALLG” here?
**A.** -0.288

**Q.** For “HMSEIVEEQNTKLKQAVSKLSKRQQEVLYLKFEEGLDYEQISKIMDLKYQSVRNLVSTAIIKIKEH”, which “soluble fraction (log2)” value is on record?
**A.** -2.16

**Q.** For “HMAFDDAHYKDMITSYLKKFKKGNRSEIENLIIPKLSEVLVEKQKKDKVKNLLQALRKDNQIRLKGKYWYL”, which “soluble fraction (log2)” value is on record?
**A.** 0.135

**Q.** Which “soluble fraction (log2)” value does the source give for “HMSRQAPIGHRIRGRRKDIGMTQNALAKAAGISPSYLNLIEHNRRSIGGGLLMRIAAILDIHPHTL” here?
**A.** -2.23

**Q.** For “HMLDLSDFEVVRDLYLSEQIWNVGDLIIARSKKDDTYKAWEIIRKGTNYVTGIDESHKVEKIWLHDILI”, which “soluble fraction (log2)” value is on record?
**A.** -1.4

**Q.** For “HMSTGYEMVREVANQGSFSKAANSLGVSGPAVSKQVKSLEERLGLVLFHRTTRAVSLTQAGRQLVDVLN”, which “soluble fraction (log2)” value is on record?
**A.** 0.0396

**Q.** Which “soluble fraction (log2)” value does the source give for “HMEQVLDEEIIKSAVQKVIKDNPSAVSDYKAGKKTAFQFLIGKAMAELQGKGHPGKISELLEKE” here?
**A.** 0.439

**Q.** With “HMSEQLKQIAERIKELRNIAGLGEEELAAKLDIPVDTYREYESGNVDIPVSFLYKISGMFNVELTAIL” as the sequence, how does the “soluble fraction (log2)” value read?
**A.** 0.0417

**Q.** With “HMDIVLPFSFAKRHGVVLSERQGETELLYLKGLPVRVLAEARRVLRQEFTVRQVEQAVFDKALSESYQN” as the sequence, how does the “soluble fraction (log2)” value read?
**A.** -1.04

**Q.** For “HMEETLLLRESVRSALAMLAPTLRITLEMYVYRQLSPTEIALRSGVSISMVRRRLGYGLYKLRTQLIDA”, which “soluble fraction (log2)” value is on record?
**A.** -0.138

**Q.** With “HMYSNDEIVNYLKNYIFDNFNLNELSDEELEEKIAELVQQQFAGQLLSLDEKVKLVNQVYSSIR” as the sequence, how does the “soluble fraction (log2)” value read?
**A.** 0.0129

**Q.** With “HMAAHWANFLEALRAGRARRVLVARGVEGWLLKELERLGAPYTLVPRIELDTLLRTTHHQGIAAEVE” as the sequence, how does the “soluble fraction (log2)” value read?
**A.** -0.692

**Q.** With “HMVPQEVLPITLIIDGKLIEENLLYAKMTEQVLIQQLDINNIKSIKQILFAGLDSFGNFFYQEKQN” as the sequence, how does the “soluble fraction (log2)” value read?
**A.** -1.8
